Results reported in paper PMC3508906 (Channels, 2012).

Target: the molecule itself
Assay: SEC-MALS

B1: YnaI, C-terminally His-tagged (pYnaI) (natural protein, E. coli, UniProt P0AEB5 1-343, looked up)
chain: MIAELFTNNALNLVIIFGSCAALILMSFWFRRGNRKRKGFLFHAVQFLIYTIIISAVGSIINYVIENYKLKFITPGVIDFICTSLIAVILTIKLFLLINQFEKQQIKKGRDITSARIMSRIIKITIIVVLVLLYGEHFGMSLSGLLTFGGIGGLAVGMAGKDILSNFFSGIMLYFDRPFSIGDWIRSPDRNIEGTVAEIGWRITKITTFDNRPLYVPNSLFSSISVENPGRMTNRRITTTIGLRYEDAAKVGVIVEAVREMLKNHPAIDQRQTLLVYFNQFADSSLNIMVYCFTKTTVWAEWLAAQQDVYLKIIDIVQSHGADFAFPSQTLYMDNITPPEQGR
In the case of B1, the “stoichiometry N” value is reported as 7.

B2: YbiO, C-terminally His-tagged (pYbiO) (natural protein, E. coli K12 MG1655, UniProt P75783 19-741, looked up)
chain: VSIPGVTTTTTTDSTTEPAPEPDIEQKKAAYGALADVLDNDTSRKELIDQLRTVAATPPAEPVPKIVPPTLVEEQTVLQKVTEVSRHYGEALSARFGQLYRNITGSPHKPFNPQTFSNALTHFSMLAVLVFGFYWLIRLCALPLYRKMGQWARQKNRERSNWLQLPAMIIGAFIIDLLLLALTLFVGQVLSDNLNAGSRTIAFQQSLFLNAFALIEFFKAVLRLIFCPNVAELRPFTIQDESARYWSRRLSWLSSLIGYGLIVAVPIISNQVNVQIGALANVIIMLCMTVWALYLIFRNKKEITQHLLNFAEHSLAFFSLFIRAFALVWHWLASAYFIVLFFFSLFDPGNSLKFMMGATVRSLAIIGIAAFVSGMFSRWLAKTITLSPHTQRNYPELQKRLNGWLSAALKTARILTVCVAVMLLLSAWGLFDFWNWLQNGAGQKTVDILIRIALILFFSAVGWTVLASLIENRLASDIHGRPLPSARTRTLLTLFRNALAVIISTITIMIVLSEIGVNIAPLLAGAGALGLAISFGSQTLVKDIITGVFIQFENGMNTGDLVTIGPLTGTVERMSIRSVGVRQDTGAYHIIPWSSITTFANFVRGIGSVVANYDVDRHEDADKANQALKDAVAELMENEEIRGLIIGEPNFAGIVGLSNTAFTLRVSFTTLPLKQWTVRFALDSQVKKHFDLAGVRAPVQTYQVLPAPGATPAEPLPPGEPTL
B2 was tested, and the “stoichiometry N” value was 7.
